Assay results: patent US20220249628

Biological target: full length recombinant von Willebrand factor, P04275

B1: recombinant ADAMTS13 (A Disintegrin And Metalloproteinase with Thrombospondin type 1 motif, member-13) (protein)
chain: AAGGILHLELLVAVGPDVFQAHQEDTERYVLTNLNIGAELLRDPSLGAQFRVHLVKMVILTEPEGAPNITANLTSSLLSVCGWSQTINPEDDTDPGHADLVLYITRFDLELPDGNRQVRGVTQLGGACSPTWSCLITEDTGFDLGVTIAHEIGHSFGLEHDGAPGSGCGPSGHVMASDGAAPRAGLAWSPCSRRQLLSLLSAGRARCVWDPPRPQPGSAGHPPDAQPGLYYSANEQCRVAFGPKAVACTFAREHLDMCQALSCHTDPLDQSSCSRLLVPLLDGTECGVEKWCSKGRCRSLVELTPIAAVHGRWSSWGPRSPCSRSCGGGVVTRRRQCNNPRPAFGGRACVGADLQAEMCNTQACEKTQLEFMSQQCARTDGQPLRSSPGGASFYHWGAAVPHSQGDALCRHMCRAIGESFIMKRGDSFLDGTRCMPSGPREDGTLSLCVSGSCRTFGCDGRMDSQQVWDRCQVCGGDNSTCSPRKGSFTAGRAREYVTFLTVTPNLTSVYIANHRPLFTHLAVRIGGRYVVAGKMSISPNTTYPSLLEDGRVEYRVALTEDRLPRLEEIRIWGPLQEDADIQVYRRYGEEYGNLTRPDITFTYFQPKPRQAWVWAAVRGPCSVSCGAGLRWVNYSCLDQARKELVETVQCQGSQQPPAWPEACVLEPCPPYWAVGDFGPCSASCGGGLRERPVRCVEAQGSLLKTLPPARCRAGAQQPAVALETCNPQPCPARWEVSEPSSCTSAGGAGLALENETCVPGADGLEAPVTEGPGSVDEKLPAPEPCVGMSCPPGWGHLDATSAGEKAPSPWGSIRTGAQAAHVWTPAAGSCSVSCGRGLMELRFLCMDSALRVPVQEELCGLASKPGSRREVCQAVPCPARWQYKLAACSVSCGRGVVRRILYCARAHGEDDGEEILLDTQCQGLPRPEPQEACSLEPCPPRWKVMSLGPCSASCGLGTARRSVACVQLDQGQDVEVDEAACAALVRPEASVPCLIADCTYRWHVGTWMECSVSCGDGIQRRRDTCLGPQAQAPVPADFCQHLPKPVTVRGCWAGPCVGQGTPSLVPHEEAAAPGRTTATPAGASLEWSQARGLLFSPAPQPRRLLPGPQENSVQSSACGRQHLEPTGTIDMRGPGQADCAVAIGRPLGEVVTLRVLESSLNCSAGDMLLLWGRLTWRKMCRKLLDMTFSSKTNTLVVRQRCGRPGGGVLLRYGSQLAPETFYRECDMQLFGPWGEIVSPSLSPATSNAGGCRLFINVAPHARIAIHALATNMGAGTEGANASYILIRDTHSLRTTAFHGQQVLYWESESSQAEMEFSEGFLKAQASLRGQYWTLQSWVPEMQDPQSWKGKEGT
For B1, the “176 kDa dimeric VWF cleavage fragment (VWF immunoblot, vortex-based assay, no hemoglobin)” value was “Control reactions with 0.25 U/mL, 0.5 U/mL, and 1 U/mL rADAMTS13 in absence of hemoglobin showed a dose-dependent increase of the 176 kDa dimeric VWF cleavage fragment”, the “ADAMTS13-mediated VWF cleavage in the presence of hemoglobin (176 kDa fragment, densitometry)” value was “rADAMTS13 has a dose-dependent potency to overcome the inhibitory effect of hemoglobin on VWF cleavage” and the “cleavage of rVWF after pre-incubation of hemoglobin and rVWF (176 kDa fragment, densitometry)” value was “rADAMTS13 supplemented after a pre-incubation time of hemoglobin and rVWF was capable to cleave VWF”.
